Measured values published in paper PMC10104862.

Molecular target: Flag-TRF2 (Telomeric repeat-binding factor 2), wild type (not stated (human or mouse cDNA cloned)) (UniProt Q15554)
Experiment: co-IP; 293T or U2OS cells co-transfected with epitope-tagged cDNAs, lysed 48 h later in BCO 300 buffer (20 mM HEPES pH 7.5, 10% glycerol, 1 mM EDTA, 0.1% NP-40); Flag M2 affinity gel; SDS-PAGE and blot

UniProt Q15554, sequence (Q15554 whole entry): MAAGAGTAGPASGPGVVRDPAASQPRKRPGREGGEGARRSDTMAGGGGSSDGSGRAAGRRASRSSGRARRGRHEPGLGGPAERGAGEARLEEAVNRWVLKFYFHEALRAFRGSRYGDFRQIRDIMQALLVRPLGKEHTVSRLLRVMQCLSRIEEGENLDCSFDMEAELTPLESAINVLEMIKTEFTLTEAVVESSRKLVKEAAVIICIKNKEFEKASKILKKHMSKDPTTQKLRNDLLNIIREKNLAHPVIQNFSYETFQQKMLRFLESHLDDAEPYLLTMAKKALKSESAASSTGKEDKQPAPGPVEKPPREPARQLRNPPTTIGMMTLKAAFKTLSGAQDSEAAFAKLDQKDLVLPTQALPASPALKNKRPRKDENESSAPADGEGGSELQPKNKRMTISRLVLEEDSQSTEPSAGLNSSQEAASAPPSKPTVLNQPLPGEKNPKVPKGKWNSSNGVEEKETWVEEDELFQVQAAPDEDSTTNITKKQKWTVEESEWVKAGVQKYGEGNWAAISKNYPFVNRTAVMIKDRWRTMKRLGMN

**Q.** With “ADAR1p110, wild type (expressed construct) (natural protein)” as the substance, how does the fold binding relative to TRF2^ΔB read?
**A.** 3 fold
